Assay results published in the supplement of paper PMC12783771.
Where a chain is given by its changes, count along the chain named. ± gives the standard deviation of the averaged measurements.

B1: library; a variant is named by its letters at X, in order (parent)
chain: MNIQIGELAKRTACPVVTIRFYEQEGLLPPPGRSRGNFRLYGEEHVERLQFIRHCRSLDMPLSDVRTLLSYRKRPDQDCGEVXMLLDEHIRQVESRIGALLELKHHLVELREACSGARPAQSCGILQXLSXCVCXTRGTTAHXSD
B2: library; a variant is named by its letters at X, in order (parent)
chain: B1 chain with D64X, K104X, L107X

Key:
[1] = variants of: B1; assay: sfGFP reporter fluorescence (15 h) (µM FITC); higher = higher leak; details: library round: Round 2; ligand: none
Description: (§1)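 Cell-free biosensing: 1 µL Echo-assembled CFE reactions with linear PbrR variant templates (5 nM) and pPbrR-sfGFP reporter, with 1 µM Pb, 30 µM Zn or no ligand; endpoint sfGFP fluorescence after 15 h at 30 °C calibrated as µM FITC. Round 2 ML-predicted PbrR mutants; up to 3 biological replicates.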

[2] = variants of: B1; assay: sfGFP reporter fluorescence (15 h) (µM FITC); higher = stronger transcriptional activation; details: library round: Round 2
Description: as §1

[3] = variants of: B2; assay: sfGFP reporter fluorescence (15 h) (µM FITC); higher = higher leak; details: library round: Round 3; ligand: none
Description: (§2)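 Cell-free biosensing: 1 µL Echo-assembled CFE reactions with linear PbrR variant templates (5 nM) and pPbrR-sfGFP reporter, with 1 µM Pb, 30 µM Zn or no ligand; endpoint sfGFP fluorescence after 15 h at 30 °C calibrated as µM FITC. Round 3 ML-predicted PbrR mutants; up to 3 biological replicates.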

[4] = variants of: B2; assay: sfGFP reporter fluorescence (15 h) (µM FITC); higher = stronger transcriptional activation; details: library round: Round 3
Description: as §2

TGDRW
sfGFP reporter fluorescence [1]: 0.0495 ± 0.00078 | sfGFP reporter fluorescence ([2]; ligand: 1 µM Pb): 0.0726 ± 0.0038 | sfGFP reporter fluorescence ([2]; ligand: 30 µM Zn): 0.205 ± 0.014

NGDDP M60L D64S L107C
sfGFP reporter fluorescence [1]: 3.21 ± 0.37 | sfGFP reporter fluorescence ([2]; ligand: 1 µM Pb): 2.96 ± 0.13 | sfGFP reporter fluorescence ([2]; ligand: 30 µM Zn): 3.58 ± 0.77

NGDAP E109D G124A
sfGFP reporter fluorescence [1]: 0.0638 ± 0.0036 | sfGFP reporter fluorescence ([2]; ligand: 1 µM Pb): 0.0745 ± 0.0045 | sfGFP reporter fluorescence ([2]; ligand: 30 µM Zn): 0.474 ± 0.07

NGCDP V108I S115G
sfGFP reporter fluorescence [1]: 0.0507 ± 0.0021 | sfGFP reporter fluorescence ([2]; ligand: 1 µM Pb): 0.0573 ± 0.0016 | sfGFP reporter fluorescence ([2]; ligand: 30 µM Zn): 0.115 ± 0.0092

NGADL L129V
sfGFP reporter fluorescence [1]: 0.0491 ± 0.0012 | sfGFP reporter fluorescence ([2]; ligand: 1 µM Pb): 0.0459 ± 0.00051 | sfGFP reporter fluorescence ([2]; ligand: 30 µM Zn): 0.0502 ± 0.0022

NGDDR V108L T139A
sfGFP reporter fluorescence [1]: 0.0498 ± 0.0012 | sfGFP reporter fluorescence ([2]; ligand: 1 µM Pb): 0.068 ± 0.0054 | sfGFP reporter fluorescence ([2]; ligand: 30 µM Zn): 0.809 ± 0.081

DTKLGMPP V108L
sfGFP reporter fluorescence [3]: 0.0413 ± 0.00089 | sfGFP reporter fluorescence ([4]; ligand: 1 µM Pb): 0.144 ± 0.0074 | sfGFP reporter fluorescence ([4]; ligand: 30 µM Zn): 0.187 ± 0.0045

DTKLGHPY Q121A
sfGFP reporter fluorescence [3]: 0.0423 ± 0.0015 | sfGFP reporter fluorescence ([4]; ligand: 1 µM Pb): 0.206 ± 0.019 | sfGFP reporter fluorescence ([4]; ligand: 30 µM Zn): 0.289 ± 0.021

DTKLGAPW V108L
sfGFP reporter fluorescence [3]: 0.0408 ± 0.002 | sfGFP reporter fluorescence ([4]; ligand: 1 µM Pb): 0.146 ± 0.0032 | sfGFP reporter fluorescence ([4]; ligand: 30 µM Zn): 0.1781 ± 0.0015

DTKLGSPP Q121A
sfGFP reporter fluorescence [3]: 0.0408 ± 0.0027 | sfGFP reporter fluorescence ([4]; ligand: 1 µM Pb): 0.186 ± 0.0074 | sfGFP reporter fluorescence ([4]; ligand: 30 µM Zn): 0.3204 ± 0.0016

DTKLGMAP V108L
sfGFP reporter fluorescence [3]: 0.0403 ± 0.00095 | sfGFP reporter fluorescence ([4]; ligand: 1 µM Pb): 0.0673 ± 0.0042 | sfGFP reporter fluorescence ([4]; ligand: 30 µM Zn): 0.288 ± 0.018

DTKLGDPR V108L
sfGFP reporter fluorescence [3]: 0.043 ± 0.0024 | sfGFP reporter fluorescence ([4]; ligand: 1 µM Pb): 0.0866 ± 0.0042 | sfGFP reporter fluorescence ([4]; ligand: 30 µM Zn): 0.142 ± 0.0031

DTKLGSPP V108L Q121A
sfGFP reporter fluorescence [3]: 0.0413 ± 0.00089 | sfGFP reporter fluorescence ([4]; ligand: 1 µM Pb): 0.2 ± 0.0066 | sfGFP reporter fluorescence ([4]; ligand: 30 µM Zn): 0.337 ± 0.004

DTKCGAAP
sfGFP reporter fluorescence [3]: 0.264 ± 0.019 | sfGFP reporter fluorescence ([4]; ligand: 1 µM Pb): 1.56 ± 0.061 | sfGFP reporter fluorescence ([4]; ligand: 30 µM Zn): 2.21 ± 0.16

DTKCGADI
sfGFP reporter fluorescence [3]: 0.227 ± 0.0097 | sfGFP reporter fluorescence ([4]; ligand: 1 µM Pb): 1.54 ± 0.036 | sfGFP reporter fluorescence ([4]; ligand: 30 µM Zn): 2.16 ± 0.09

DTKLGDAL Q121A
sfGFP reporter fluorescence [3]: 0.04099 ± 0.00034 | sfGFP reporter fluorescence ([4]; ligand: 1 µM Pb): 0.104 ± 0.004 | sfGFP reporter fluorescence ([4]; ligand: 30 µM Zn): 0.329 ± 0.015

KNVEGDDP M60L P61N
sfGFP reporter fluorescence [3]: 0.043 ± 0.00089 | sfGFP reporter fluorescence ([4]; ligand: 1 µM Pb): 0.0385 ± 0.00085 | sfGFP reporter fluorescence ([4]; ligand: 30 µM Zn): 0.047 ± 0.0012

DTKLGSRP V108L
sfGFP reporter fluorescence [3]: 0.0395 ± 0.0015 | sfGFP reporter fluorescence ([4]; ligand: 1 µM Pb): 0.117 ± 0.0088 | sfGFP reporter fluorescence ([4]; ligand: 30 µM Zn): 0.28 ± 0.012

DTKLGAPL Q121A
sfGFP reporter fluorescence [3]: 0.0458 ± 0.0015 | sfGFP reporter fluorescence ([4]; ligand: 1 µM Pb): 0.245 ± 0.019 | sfGFP reporter fluorescence ([4]; ligand: 30 µM Zn): 0.407 ± 0.017

DSKLGHPY
sfGFP reporter fluorescence [3]: 0.0395 ± 0.00071 | sfGFP reporter fluorescence ([4]; ligand: 1 µM Pb): 0.112 ± 0.007 | sfGFP reporter fluorescence ([4]; ligand: 30 µM Zn): 0.234 ± 0.033

DVVLGDDR H106A
sfGFP reporter fluorescence [3]: 0.043 ± 0.0021 | sfGFP reporter fluorescence ([4]; ligand: 1 µM Pb): 0.126 ± 0.007 | sfGFP reporter fluorescence ([4]; ligand: 30 µM Zn): 0.0489 ± 0.0029

KNVLMDDP M60L P61N
sfGFP reporter fluorescence [3]: 0.606 ± 0.027 | sfGFP reporter fluorescence ([4]; ligand: 1 µM Pb): 1.64 ± 0.097 | sfGFP reporter fluorescence ([4]; ligand: 30 µM Zn): 2.45 ± 0.11

DTKCGCDA
sfGFP reporter fluorescence [3]: 0.126 ± 0.0021 | sfGFP reporter fluorescence ([4]; ligand: 1 µM Pb): 1.6 ± 0.12 | sfGFP reporter fluorescence ([4]; ligand: 30 µM Zn): 1.51 ± 0.051

DSKLGNRA Q121A
sfGFP reporter fluorescence [3]: 0.044 ± 0.0012 | sfGFP reporter fluorescence ([4]; ligand: 1 µM Pb): 0.209 ± 0.008 | sfGFP reporter fluorescence ([4]; ligand: 30 µM Zn): 0.945 ± 0.054

DTKLGSPP V108L
sfGFP reporter fluorescence [3]: 0.0404 ± 0.0007 | sfGFP reporter fluorescence ([4]; ligand: 1 µM Pb): 0.127 ± 0.0092 | sfGFP reporter fluorescence ([4]; ligand: 30 µM Zn): 0.186 ± 0.0066

DSKLGMAP V108L
sfGFP reporter fluorescence [3]: 0.043 | sfGFP reporter fluorescence ([4]; ligand: 1 µM Pb): 0.0646 ± 0.004 | sfGFP reporter fluorescence ([4]; ligand: 30 µM Zn): 0.354 ± 0.015

DTKLGSDP V108L H142A
sfGFP reporter fluorescence [3]: 0.0396 ± 0.00089 | sfGFP reporter fluorescence ([4]; ligand: 1 µM Pb): 0.076 ± 0.0048 | sfGFP reporter fluorescence ([4]; ligand: 30 µM Zn): 0.278 ± 0.029

DTKLGDRR E109L
sfGFP reporter fluorescence [3]: 0.0416 ± 0.0019 | sfGFP reporter fluorescence ([4]; ligand: 1 µM Pb): 0.103 ± 0.005 | sfGFP reporter fluorescence ([4]; ligand: 30 µM Zn): 0.224 ± 0.0067

DTKCGSAP
sfGFP reporter fluorescence [3]: 0.21 ± 0.0021 | sfGFP reporter fluorescence ([4]; ligand: 1 µM Pb): 1.43 ± 0.041 | sfGFP reporter fluorescence ([4]; ligand: 30 µM Zn): 2.22 ± 0.1

DTKLGSPL
sfGFP reporter fluorescence [3]: 0.0411 ± 0.0014 | sfGFP reporter fluorescence ([4]; ligand: 1 µM Pb): 0.1583 ± 0.0015 | sfGFP reporter fluorescence ([4]; ligand: 30 µM Zn): 0.196 ± 0.019

DTKCIDAP I125L
sfGFP reporter fluorescence [3]: 0.059 ± 0.0049 | sfGFP reporter fluorescence ([4]; ligand: 1 µM Pb): 0.0617 ± 0.0061 | sfGFP reporter fluorescence ([4]; ligand: 30 µM Zn): 0.614 ± 0.022

DSKLGSPP V108L
sfGFP reporter fluorescence [3]: 0.0407 ± 0.0012 | sfGFP reporter fluorescence ([4]; ligand: 1 µM Pb): 0.121 ± 0.0045 | sfGFP reporter fluorescence ([4]; ligand: 30 µM Zn): 0.247 ± 0.0044

DTKLGCDL Q121A
sfGFP reporter fluorescence [3]: 0.0413 ± 0.00047 | sfGFP reporter fluorescence ([4]; ligand: 1 µM Pb): 0.101 ± 0.0031 | sfGFP reporter fluorescence ([4]; ligand: 30 µM Zn): 0.103 ± 0.0093

DTKLGSDP Q121A H142A
sfGFP reporter fluorescence [3]: 0.0408 ± 0.0014 | sfGFP reporter fluorescence ([4]; ligand: 1 µM Pb): 0.106 ± 0.0044 | sfGFP reporter fluorescence ([4]; ligand: 30 µM Zn): 0.472 ± 0.015

DTKLGAPW Q121A
sfGFP reporter fluorescence [3]: 0.0438 ± 0.0019 | sfGFP reporter fluorescence ([4]; ligand: 1 µM Pb): 0.216 ± 0.0053 | sfGFP reporter fluorescence ([4]; ligand: 30 µM Zn): 0.277 ± 0.013

DTKCIDAK
sfGFP reporter fluorescence [3]: 0.305 ± 0.035 | sfGFP reporter fluorescence ([4]; ligand: 1 µM Pb): 1.87 ± 0.27 | sfGFP reporter fluorescence ([4]; ligand: 30 µM Zn): 2.86 ± 0.33

KTVLIDDP P61T
sfGFP reporter fluorescence [3]: 0.0467 ± 0.002 | sfGFP reporter fluorescence ([4]; ligand: 1 µM Pb): 0.106 ± 0.0053 | sfGFP reporter fluorescence ([4]; ligand: 30 µM Zn): 0.251 ± 0.023

DTKLGCDA Q121A
sfGFP reporter fluorescence [3]: 0.0408 ± 0.00071 | sfGFP reporter fluorescence ([4]; ligand: 1 µM Pb): 0.107 ± 0.0045 | sfGFP reporter fluorescence ([4]; ligand: 30 µM Zn): 0.117 ± 0.0042

KNVLGDDR I90C H106A
sfGFP reporter fluorescence [3]: 0.0676 ± 0.0026 | sfGFP reporter fluorescence ([4]; ligand: 1 µM Pb): 0.502 ± 0.032 | sfGFP reporter fluorescence ([4]; ligand: 30 µM Zn): 0.74 ± 0.058

DTKLGCDP V108L Q121A
sfGFP reporter fluorescence [3]: 0.043 ± 0.0018 | sfGFP reporter fluorescence ([4]; ligand: 1 µM Pb): 0.117 ± 0.0039 | sfGFP reporter fluorescence ([4]; ligand: 30 µM Zn): 0.116 ± 0.0027

DNVLGDDY H54A H142C
sfGFP reporter fluorescence [3]: 0.0421 ± 0.0015 | sfGFP reporter fluorescence ([4]; ligand: 1 µM Pb): 0.0519 ± 0.0017 | sfGFP reporter fluorescence ([4]; ligand: 30 µM Zn): 0.136 ± 0.0031

TTKCGDRP
sfGFP reporter fluorescence [3]: 1.83 ± 0.057 | sfGFP reporter fluorescence ([4]; ligand: 1 µM Pb): 2.37 ± 0.091 | sfGFP reporter fluorescence ([4]; ligand: 30 µM Zn): 2.74 ± 0.22

DTKCMDAP G124A
sfGFP reporter fluorescence [3]: 0.212 ± 0.015 | sfGFP reporter fluorescence ([4]; ligand: 1 µM Pb): 1.58 ± 0.084 | sfGFP reporter fluorescence ([4]; ligand: 30 µM Zn): 2.41 ± 0.38

DSKLGAPW
sfGFP reporter fluorescence [3]: 0.043 ± 0.0014 | sfGFP reporter fluorescence ([4]; ligand: 1 µM Pb): 0.138 ± 0.012 | sfGFP reporter fluorescence ([4]; ligand: 30 µM Zn): 0.227 ± 0.025

DTKIGDDP V108L E112A
sfGFP reporter fluorescence [3]: 0.0428 ± 0.0025 | sfGFP reporter fluorescence ([4]; ligand: 1 µM Pb): 0.094 ± 0.0043 | sfGFP reporter fluorescence ([4]; ligand: 30 µM Zn): 0.294 ± 0.03
